Assay results as given in patent US20150118239A1 (GEORG AUGUST UNIVERSIT T G TTINGEN STIFTUNG FFENTLICHEN …, published 2015).

B1: NT4X-167 (antibody, V domains shown)
VH: QVQLKQSGPGLVQPSQSLSITCTVSGFSLTSYGIHWVRQSPGKGLEWLGVMWSGGITDFYAAFISRLSISRDISKSQVFFKMNSLQADDTAIYYCARGSRYALDYWGQGTSVSVSS
VL: DIQMTQTTSSLSASLGDRVTISCRASQDISNYLNWYQQKPDGTVKLLIYYTSRLHSGVPSRFSGSGSGTDYSLTISNLEQEDIATYFCQQGNTLPPTFGGGTKLEIK
notes: also called NT4X-67
B2: NT4X-83 (antibody, V domains shown)
VH: EVHLQQSGAELVKPGASVKLSCTASGFNIRDTYIHWVKQRPEQGLEWIGRVDPANGNTKYDPKFQGKATITADTSSDTAYLQLSSLTAEDTAVYFCARRIYYGYALFAYWGQGTLVTVSA
VL: DIVMTQSPSSLTVTAGEKVTMSCKSSQSLLNSGNQKNYLTWYQQKPGQPPKLLIYWASTRESGVPDRFTGSGSGTDFTLTISSVQAEDLAVYYCQNDYSYPLTFGAGTKLELK
notes: also called Aβ4-40 NT4X-83; DSM ACC3161

What was measured:
Aβ4-42 = Aβ4-42 (human); test: cell-based or functional assay
Aβ4-38 [1] = biological target: Aβ4-38 (human); test: cell-based or functional assay
Aβ4-40 [2] = biological target: Aβ4-40 (human); test: cell-based or functional assay
AβpE3-42 = AβpE3-42 (human, N-terminal pyroglutamate at Aβ position 3 (pE3)); test: cell-based or functional assay
Aβ4-10 = biological target: T1, Aβ4-10 (human); test: hybridoma screening ELISA
T1 construct: Screening peptide of the hybridoma ELISA
T1 peptide: FRHDSGY

Aβ36-40 = biological target: T2, Aβ36-40 (human); test: hybridoma screening ELISA
T2 construct: Counter-screening peptide of the hybridoma ELISA
T2 peptide: VGGVV

[3] = biological target: T3, AβpE3-42 low molecular weight (LMW) oligomers (human, N-terminal pyroglutamate at Aβ position 3 (pE3)); test: native Western blot, sensitivity test
T3 construct: otherwise only LMW oligomers

[4] = biological target: T4, Aβ4-42 low molecular weight (LMW) oligomers (human); test: native Western blot, sensitivity test
T4 construct: otherwise only LMW oligomers; also called Aβ4-42 oligomers

[5] = biological target: α-Synuclein aggregates (Lewy bodies, Lewy neurites, glial cytoplasmic inclusions) (human, UniProt P37840 1-140); test: IHC, brain sections of non-AD neurodegenerative disorders
[6] = biological target: T5, Phospho-Tau aggregates (tufted astrocytes in PSP, Pick bodies in PiD) (human, UniProt P10636-8 2-441, limits assumed, phosphorylated, sites not stated); test: as above
T5 construct: Tissue aggregates in patients' brain sections; also called pTau

[7] = biological target: T6, Phospho-TDP-43 neuronal cytoplasmic and neuritic deposits (human, UniProt Q13148 1-414, limits assumed, phosphorylated, sites not stated); test: as above
T6 construct: Tissue aggregates in patients' brain sections

[8] = biological target: T7, Prion protein (PrP) deposits (human, UniProt P04156 23-230); test: as above
T7 construct: also called PrP immunopositive amyloid plaques, synaptic, plaque-like and perineuronal deposits

Aβ5-20 = biological target: T8, Aβ5-20 (human); test: pepscan ELISA
T8 construct: Pepscan 16-mer
T8 peptide: RHDSGYEVHHQKLVFF

Aβ2-17 = biological target: T9, Aβ2-17 (human); test: pepscan ELISA, coated 16-mer peptides, antibody 7 µg/ml
T9 construct: Pepscan 16-mer
T9 peptide: AEFRHDSGYEVHHQKL

Aβ3-18 = biological target: T10, Aβ3-18 (human); test: as above
T10 construct: Pepscan 16-mer
T10 peptide: EFRHDSGYEVHHQKLV

Aβ4-19 = biological target: T11, Aβ4-19 (human); test: as above
T11 construct: Pepscan 16-mer
T11 peptide: FRHDSGYEVHHQKLVF

Aβ4-38 [9] = biological target: T12, Aβ4-38 (human); test: native Western blot, equal amounts of freshly dissolved peptides
T12 construct: Synthetic peptide

Aβ4-40 [10] = biological target: T13, Aβ4-40 (human); test: as above
T13 construct: Synthetic peptide, the immunogen

Row | Binder | viability of SH-SY5Y cells (MTS), aged 10 µM peptide with against without antibody (Aβ4-42) [p value] | viability of SH-SY5Y cells (MTS), aged 10 µM peptide with against without antibody (Aβ4-38 [1]) [p value] | viability of SH-SY5Y cells (MTS), aged 10 µM peptide with against without antibody (Aβ4-40 [2]) [p value] | viability of SH-SY5Y cells (MTS), aged 10 µM peptide with against without antibody (AβpE3-42) [p value] | binding result (Aβ4-10) | binding result (Aβ36-40) | peptide amount giving similar signal intensity [3] [ng] | peptide amount giving similar signal intensity [4] [ng] | binding result [5] | binding result [6] | binding result [7] | binding result [8] | binding result (Aβ5-20) | binding result (Aβ2-17) | binding result (Aβ3-18) | binding result (Aβ4-19) | binding result (Aβ4-38 [9]) | binding result (Aβ4-40 [10])
1 | B1 | < 0.01 | < 0.01 | < 0.01 | < 0.05 | binds | no binding | 70 | 70 | no binding | no binding | no binding | no binding | – | – | – | – | – | –
2 | B2 | – | – | – | – | binds | no binding | 500 | 500 | no binding | no binding | no binding | no binding | no binding (tested: 7 µg/ml) | binds | binds | binds | binds | binds
